Literature values in PMC8393563.

Molecular target: PGRMC1 (Homo sapiens) (UniProt O00264)

Substance: PGRMC1 (from UniProt O00264)
- Kd: < 3.5 µM
